Article PMC4330346, “Function of the N-terminal segment of the RecA-dependent nuclease Ref” (Nucleic Acids Research, 2015)

How the values were obtained:
[1] = molecular target: ϕW39 R11C Ref (bacteriophage ϕW39); assay: cross-linking; non-specific cross-linker disuccinimidyl glutarate (DSG) to trap the oligomeric states of Ref (Supplementary Figure S2)
[2] = molecular target: ϕW39 R11C Ref (bacteriophage ϕW39); assay: non-reducing SDS-PAGE; Ref dialysed free of DTT; 6.5 μg Ref, 50 mM sodium phosphate pH 7.5, 75 mM sodium chloride, no DTT; non-reducing cracking buffer, 4–15% gradient SDS-PAGE; the dimer is taken as disulfide-linked; 10 mM DTT substantially reduced the dimers of P1 WT Ref and ϕW39 R11C
[3] = molecular target: the molecule itself; assay: AUC; preliminary ultracentrifugation, unpublished data; conditions not given
[4] = molecular target: T1, phiW39 WT Ref (bacteriophage phiW39, I8L;C11R;K13E;V34A;T46S;L47I;R86T;A93T;N107E;A115S); assay: fluorescence polarization; apparent Kd; 25 mM Tris-acetate pH 8.5, 3 mM potassium glutamate, 15 mM magnesium acetate, 5% w/v glycerol, 2 nM DNA, Ref 0.5-10000 nM, 15 min at room temperature, read at 25 C; one-site fit with Hill coefficient; conditions: protein: recombinant, tags: none (native form)
T1 sequence: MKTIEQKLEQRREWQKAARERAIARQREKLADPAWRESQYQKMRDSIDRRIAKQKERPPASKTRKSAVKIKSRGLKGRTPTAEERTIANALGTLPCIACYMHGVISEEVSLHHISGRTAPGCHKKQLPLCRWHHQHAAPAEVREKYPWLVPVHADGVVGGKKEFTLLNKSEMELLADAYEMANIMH

[5] = molecular target: T2, P1 deltaN76 Ref (bacteriophage P1, UniProt P35926 77-186, del1-76); assay: fluorescence polarization; 25 mM Tris-acetate pH 8.5, 3 mM potassium glutamate, 15 mM magnesium acetate, 5% w/v glycerol, 2 nM DNA, Ref 0.5-10000 nM, 15 min at room temperature, read at 25 C; one-site fit with Hill coefficient; conditions: protein: recombinant, tags: none (native form)
T2 sequence: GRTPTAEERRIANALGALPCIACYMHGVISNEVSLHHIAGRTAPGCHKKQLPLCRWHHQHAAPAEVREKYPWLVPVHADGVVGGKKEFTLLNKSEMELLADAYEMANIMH

[6] = molecular target: T3, phiW39 deltaN74 Ref (bacteriophage phiW39, R86T;A93T;N107E;A115S); assay: as above; conditions: protein: recombinant, tags: none (native form)
T3 sequence: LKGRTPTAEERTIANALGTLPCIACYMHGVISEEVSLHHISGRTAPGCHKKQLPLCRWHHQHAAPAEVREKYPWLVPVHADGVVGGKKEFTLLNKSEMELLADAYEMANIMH

[7] = molecular target: T4, phiW39 deltaN59 Ref (bacteriophage phiW39, R86T;A93T;N107E;A115S); assay: fluorescence polarization; Kd value only in Figure 2C; 25 mM Tris-acetate pH 8.5, 3 mM potassium glutamate, 15 mM magnesium acetate, 5% w/v glycerol, 2 nM DNA, Ref 0.5-10000 nM, 15 min at room temperature, read at 25 C; one-site fit with Hill coefficient; conditions: protein: recombinant; tags: none (native form); label: 5' 6-FAM; single strand
T4 sequence: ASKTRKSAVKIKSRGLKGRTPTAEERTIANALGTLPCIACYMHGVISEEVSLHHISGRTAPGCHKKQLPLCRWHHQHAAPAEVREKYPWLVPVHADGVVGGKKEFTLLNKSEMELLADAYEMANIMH

[8] = label: 5' 6-FAM on strand 1, blunt

In the case of ϕW39 R11C Ref (enzyme), the stoichiometry N [1] is reported as 2 and the stoichiometry N [2] is reported as 2.

B1: bacteriophage P1 Ref (recombination enhancement function) protein, wild type (enzyme, UniProt P35926 1-186, looked up)
chain: MKTIEQKIEQCRKWQKAARERAIARQREKLADPVWRESQYQKMRDTLDRRIAKQKERPPASKTRKSAVKIKSRGLKGRTPTAEERRIANALGALPCIACYMHGVISNEVSLHHIAGRTAPGCHKKQLPLCRWHHQHAAPAEVREKYPWLVPVHADGVVGGKKEFTLLNKSEMELLADAYEMANIMH
notes: has Cys11; Purified in native form (no tag)
For B1, the “stoichiometry N” value [3] was 2.

B2: AJM25 71mer ssDNA (ssDNA)
DNA: CAGAAGTAAGTTGGCCGCAGTGTTATCACTCATGGTTATGGCAGCACTGCATAATTCTCTTACTGTCATGC
In the case of B2, the Kd ([4]; label: 5' 6-FAM, single strand) is reported as 28 ± 2 nM, the binding result ([5]; label: 5' 6-FAM, single strand) is reported as “no binding” and the binding result ([6]; label: 5' 6-FAM, single strand) is reported as “no binding”. The binding signal [7] was ~40 fold reduction in affinity.

B3: AJM25/AJG52 71 bp dsDNA (dsDNA)
DNA 1: CAGAAGTAAGTTGGCCGCAGTGTTATCACTCATGGTTATGGCAGCACTGCATAATTCTCTTACTGTCATGC
DNA 2: GCATGACAGTAAGAGAATTATGCAGTGCTGCCATAACCATGAGTGATAACACTGCGGCCAACTTACTTCTG
B3 was tested, and the Kd [4, 8] was 24 ± 1 nM, the binding result [5, 8] was “no binding” and the binding result [6, 8] was “no binding”.
